Reference: article PMC6780499, “Characterization, Recombinant Production and Structure-Function Analysis of NvCI, A Picomolar Metallocarboxypeptidase Inhibitor from the Marine Snail Nerita versicolor” (Marine Drugs, 2019)
No end group written: not given here.

T1: hTAFI (Homo sapiens, UniProt Q96IY4)
T1 sequence (Q96IY4 115-423): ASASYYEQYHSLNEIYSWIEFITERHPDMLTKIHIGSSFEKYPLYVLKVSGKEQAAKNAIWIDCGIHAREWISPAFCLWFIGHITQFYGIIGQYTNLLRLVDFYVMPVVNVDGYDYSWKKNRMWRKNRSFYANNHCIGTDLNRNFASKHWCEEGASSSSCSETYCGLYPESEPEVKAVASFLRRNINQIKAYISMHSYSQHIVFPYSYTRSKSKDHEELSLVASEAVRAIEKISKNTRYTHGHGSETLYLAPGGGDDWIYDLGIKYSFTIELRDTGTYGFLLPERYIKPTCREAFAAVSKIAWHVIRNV

T2: hCPB (Homo sapiens (Human), UniProt P15086)
T2 chain: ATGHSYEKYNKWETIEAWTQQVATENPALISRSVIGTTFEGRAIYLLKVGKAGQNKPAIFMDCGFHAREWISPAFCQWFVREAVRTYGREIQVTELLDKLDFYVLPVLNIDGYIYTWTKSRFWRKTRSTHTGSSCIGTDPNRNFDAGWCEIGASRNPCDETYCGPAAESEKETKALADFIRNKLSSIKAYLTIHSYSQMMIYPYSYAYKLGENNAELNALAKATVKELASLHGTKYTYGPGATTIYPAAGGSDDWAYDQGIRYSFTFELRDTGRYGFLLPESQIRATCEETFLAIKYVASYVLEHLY

B1: NvCI (protein)
chain: FHVPDDRPCINPGRCPLVPDATCTFVCKAADNDFGYECQHVWTFEGQRVGCYA
modifications: disulfide (positions not given here); not fully specified (bridges); ends not checked

Key:
CPA1 forms = assay: Apparent binding kinetics, effect of preincubation time; assay type: biochemical; conditions: preincubation over different periods of time, titration and equilibrium conditions
Experimental: (§1) The Ki values of natural and recombinant NvCI against bCPA1, hCPA1, hCPA2, rat CPA3, hCPA4, hCPB1, bTAFI, hTAFI, hCPD and hCPZ were determined by measuring the enzymatic residual activity (Vi/V0 = a) at different inhibitor concentrations and using a fixed enzyme and substrate concentrations as described above, where vi and v0 are the fraction of enzymatic activity in the presence and absence of inhibitor, respectively, in terms of initial velocities. […] Working temperature was 37 °C. The best estimates of Ki values were obtained by fitting the experimental data to the equation for tight-binding inhibitors by non-linear regression using the GraphPad Prisma 5 software (GraphPad Software, Inc., San Diego, CA, USA) at p < 0.05. The real Ki values against each of these A/B-type MCPs were calculated according to the equation described by Morrison and Copeland [19, 20].

different MCPs = assay: as above; assay type: biochemical; conditions: preincubation over different periods of time, titration and equilibrium conditions
Experimental: as §1

HepG2 cells = assay: Cytotoxicity, XTT assay; assay type: cell-based, human; conditions: 72 h incubation, 2 to 250 µg/ml, three independent experiments
Experimental: Cytotoxicity effect of NvCI was tested in a cell culture system using the human hepatocyte cell line HepG2 (American Type Culture Collection (ATCC)). The cells were grown in Dulbecco’s modified Eagle’s medium (DMEM) medium supplemented with 10% (v/v) heat inactivated fetal bovine serum, 2 mM glutamine (Life Technologies Inc.), in a highly humidified atmosphere of 90% air with 10% CO2 at 37 °C. Growth inhibitory effect was measured by the microculture tetrazolium [2,3-bis-(2-methoxy-4-nitro-5-sulfophenyl)-2H-tetrazolium-5-carboxanilide, XTT] assay. Following the addition of different inhibitor concentrations to quadruplicate wells, plates were incubated at 37 °C for 72 h. Aliquots of 20 µl of XTT solution were then added to each well. After 3 h, the color formed was quantitated by a spectrophotometric plate reader (PerkinElmer Victor3 V) at a wavelength of 490 nm. Cell viability was expressed as a percentage of the control level.
Cell viability of HepG2 cells after 72 h incubation with NvCI at various concentrations (2 to 250 µg/ml). Untreated cells were used as controls. Data represent the mean and standard error of the mean (SEM) of three independent experiments.

[1] = Folding state and stability by CD at different pH and temperature; assay type: physicochemical; conditions: pH 2 to 10, 25 °C to 90 °C, 0.05–0.06 mg/ml
Experimental: The folding state and stability of NvCI was investigated on the natural and recombinant forms by CD. The proteins, either in 0.1% TFA (v/v) or 20mM sodium phosphate (pH 2.0, 6.5 or 8.0) were analyzed at 0.05–0.06 mg/ml, from 25 to 90 °C in a Jasco J-710 spectropolarimeter (Pfugnstadt, Germany) in the 190–320nm range. Additional analyses were made under folding conditions (20mM sodium phosphate, pH 8.0) in the absence and presence of reducing reagent (1 or 20 mM DTT), a redox-pair (1mM Cys + 0.5mM cystine), and either absence or presence of denaturant (8 M urea). Complementary ^1H-NMR experiments were performed in a 500MHz NMR (Bruker Advance) on rNvCI in 20 mM sodium phosphate (pH 2.0 and 6.5), in 90% ^1H2O + 10% D2O, at 298 K. DQF-COSY, NOESY, TOCSY and HSQC spectra were obtained in a TCI cryoprobe of 5mm and used for provisional backbone assignment.

bCPA and hCPA1 = assay: Competitive (double) titration with the tight-binding inhibitor TCI; assay type: biochemical; conditions: competing assays with the similar tight-binding inhibitor TCI
hTAFI = molecular target: T1, hTAFI; assay: Ki determination, tight-binding inhibition of metallocarboxypeptidase; assay type: biochemical; conditions: tight-binding equation fit; substrate AAFA 0.1mM; enzyme-inhibitor mixture not preincubated; 37 °C; means (n = 3) ± SD
Experimental: Inhibitory activities against CPA- and CPB-type forms (bovine and human variants of CPA1, CPA2, CPA4, CPB1, and TAFI) were assayed for all extracts, subject to the experimental conditions that enzyme (E), substrate (S) and inhibitor (I) concentrations as well as the [I]/[E] ratio and preincubation time followed the requirements for tight-binding inhibitor assays. Similar approaches were followed to measure the activities of proteases of different catalytic types, like pepsin, papain, trypsin and subtilisin [45, 46, 47, 48]. All assays were performed in triplicate at 25 °C in a multiplexed manner. For 96-well assays an iEMS spectrophotometer reader/dispenser FM (Labsystems, Finland) was used with a final reaction volume of 250 μL. […] The reactions were followed at 5 s intervals for 5 min and recorded as initial velocities. […]
The Ki values of natural and recombinant NvCI against bCPA1, hCPA1, hCPA2, rat CPA3, hCPA4, hCPB1, bTAFI, hTAFI, hCPD and hCPZ were determined by measuring the enzymatic residual activity (Vi/V0 = a) at different inhibitor concentrations and using a fixed enzyme and substrate concentrations as described above, where vi and v0 are the fraction of enzymatic activity in the presence and absence of inhibitor, respectively, in terms of initial velocities. […]

hCPB = molecular target: T2, hCPB; assay: Ki, residual activity

Molecule	binding behaviour (CPA1 forms)	binding behaviour (different MCPs)	cytotoxicity / cell viability (HepG2 cells)	stability by CD spectra [1]	inhibitory capability / maximum potential activity by competitive titration (bCPA and hCPA1) [%]	Ki (hTAFI) [nM]	Kd (hCPB) [nM]
NvCI: 53-residue, three-disulphide proteinaceous metallocarboxypeptidase inhibitor from the marine snail Nerita versicolor; major isoform; UniProt P86912 (FHVPDDRPCINPGRCPLVPDATCTFVCKAADNDFGYECQHVWTFEGQRVGCYA; disulfide (positions not given here); also: three disulphides, pairing not given here; UniProt P86912 1-53, looked up)	slow binding behavior	fast binding	None of the NvCI concentrations assayed exhibited substantial cytotoxicity	great stability and capacity to recover its spectral properties when returned to room conditions	50.4	0.393 ± 0.0219	–
B1	–	–	–	–	–	–	0.549
